The text below walks through data of paper PMC8534903.

The subject of this series is His-Mwt (matrix protein M) (Human respiratory syncytial virus (A2?)). The series can be described thus: EMSA. The note with it: 10 mM HEPES (pH not stated), 0.25 mM DTT, 50 mM KCl, 10 uL, 15 min at room temperature; 0.8% agarose gel, 40 V, 8 h, 4 C.

On to control luciferase RNA (T7 transcript), for which the K half was 2100 nM.
